One data set deals with TNF-alpha. Briefly: cell-based or functional assay.
The conditions of data set [1]: in monkeys, literature [6]; cited from earlier work.
Data set [2] is described as follows: analytical gel filtration (Superdex200), apparent molecular weight. The format is physicochemical. An excerpt: In the fusion protein of GLP-1(A8G/G22E)-Fn8-COL18NC1 described in example 4, the flexible unstructured linker between Fn8 and COL18NC1 contains six residues (GGGSGG; SEQ ID NO:89). To generate the flexible un-structured linkers with different lengths, we have synthesized the genes GLP-1(A8G/G22E/R36S)-Fn8-COL18NC1-20, GLP-1(A8G/G22E/R36S)-Fn8-COL18NC1-30, GLP-1(A8G/G22E/R36S)-Fn8-COL18NC1-54 and GLP-1(A8G/G22E/R36S)-Fn8-COL18NC1-60. In these genes, the length of the flexible unstructured polypeptide linker between Fn8 and COL18NC1 contained 20, 30, 54 and 60 residues, respectively. The protein sequences of GLP-1(A8G/G22E/R36S)-Fn8-COL18NC1-20, GLP-1(A8G/G22E/R36S)-Fn8-COL18NC1-30, GLP-1(A8G/G22E/R36S)-Fn8-COL18NC1-54 and GLP-1(A8G/G22E/R36S)-Fn8-COL18NC1-60 are listed as SEQ ID NO:8-11. The synthetic genes of GLP-1(A8G/G22E/R36S)-Fn8-COL18NC1-20, GLP-1(A8G/G22E/R36S)-Fn8-COL18NC1-30, GLP-1(A8G/G22E/R36S)-Fn8-COL18NC1-54 and GLP-1(A8G/G22E/R36S)-Fn8-COL18NC1-60 were grafted to the pET29b by NdeI and XhoI for protein expressions. The expression and purification of these fusion proteins were carried out using similar protocols described in example 3. To estimate the hydrodynamic radius and/or the Rg of the fusion proteins, the purified proteins were loaded on an analytical gel filtration column Superdex200 (GE Healthcare).
Moreover, the flexible unstructured linker between the therapeutic polypeptide and the scaffold protein may adjust the hydrodynamic radius and/or the Rg of the fusion molecule in a tunable manner.
The apparent molecular weights of the fusion proteins were estimated by use of an analytical gel filtration column Superdex-200 (GE Healthcare) mounted on the AKTA FPLC system (GE Healthcare). The purified fusion proteins GLP-1-Fn8, GLP-1-Fn8-COL18NC1, GLP-1(A8G/G22E/R36G)-Fn8-p246-COL18NC1 were loaded on the Superdex200 column. GLP-1-Fn8 is a fusion protein of GLP-1 and Fn8 and contains the first 144 amino acid residues of the fusion protein GLP-1-Fn8-COL18NC1 (SEQ ID NO:2). […] The genuine molecular weights for the fusion proteins GLP-1-Fn8 monomer, GLP-1-Fn8-COL18NC1 trimer, and GLP-1(A8G/G22E/R36G)-Fn8-p246-COL18NC1 trimer were ˜15 Kd, 65 Kd and 123Kd, respectively.
(Size exclusion chromatography separates by hydrodynamic size, large species first.)

For data set [3], the target named is human GLP-1 receptor (GLP-1R) (human, UniProt P43220 24-463). Briefly: cell-based or functional assay.
The nature of data set [4]: pharmacokinetics in Sprague-Dawley rats, sandwich ELISA (Example 6). The note with it: Sprague-Dawley rat, intraperitoneal, 0.66/0.72/0.75/0.78 mg/kg respectively. The format is in vivo. The method, then: To evaluate the pharmacokinetics profiles for the GLP-1 containing fusion proteins generated using the method of the invention, we purified GLP-1(A8G/G22E/R36S)-Fn8-COL18NC1, GLP-1(A8G/G22E/R36S)-Fn8-COL18NC1-20, GLP-1(A8G/G22E/R36S)-Fn8-COL18NC1-30, GLP-1(A8G/G22E/R36S)-Fn8-COL18NC1-54 in PBS buffer, pH 7.2. These fusion proteins were administered on Sprague-Dawley (SD) rats by intraperitoneal injections at the doses of 0.66 mg/kg, 0.72 mg/kg, 0.75 mg/kg, 0.78 mg/kg animal respectively. Blood samples were taken at various time points after injections such as 0-min, 30-min, 1-hour, 2-hour, 4-hour, 8-hour, 24-hour, 48-hour, 3-day, 4-day, 5-day. 7-day, 10-day. The serum samples were centrifuged and kept at −80° C. freezer.
(§1) The GLP-1 concentrations within the serum samples were examined by use of the sandwich ELISA method. The rabbit polyclonal antibody against human Fibronectin at the concentration of 3 ug/ml (Ab299, Abcam company) was coated on ELISA plate for 1 hour at room temperature. Then the plate was washed by PBST buffer three times and the wells were blocked by PBS with 10% FBS for 1 hour at room temperature. The plate was washed three times before the serum samples containing GLP-1 fusion proteins were added. The serum samples could be diluted to 20-10000 folds before use. The ELISA plate was incubated with the serum samples at room temperature for 1 hour and then washed by PBST buffer five times. Then mouse monoclonal against human GLP-1 peptide antibody (sc57510, Santa Cruz Biotechology) at the concentration of 1 ug/ml in PBST buffer was added to the wells. The plate was washed extensively after incubation of 1 hour at room temperature. The secondary antibody, […] HRP conjugated antibody (Beijing ZSGB-Bio company, ZB 5301), was added into the wells and the color was developed using TMB (3,3′,5,5′-tetramethylbenzidine, BD Biosciences, Cat 555214). The plate reader (Bio-Rad microplate reader Model 680) was utilized to obtain the OD450 readings. This method has been calibrated using purified proteins first.
The pharmacokinetics parameters were obtained by using the WinNonlin software (Table 3).

Data set [5] is described as follows: pharmacokinetics in SD rats, sandwich ELISA (Example 15). The format is in vivo, SD (Sprague-Dawley) rats. Particulars: SD rats, intraperitoneal, 5 nmol/kg. As to the method: To evaluate the pharmacokinetics profiles for the GLP-1 containing fusion proteins generated using the method of the invention, we purified the recombinant fusion proteins of GLP-1-Fn8-COL18NC1, GLP1(A8G/G22E/R36G)-Fn8-p246-COL18NC1 and GLP1(A8G/G22E/R36G)-Fn8-p285-COL18NC1 in PBS buffer, pH 7.2. These fusion proteins were administered into SD (Sprague-Dawley) rats by intraperitoneal injections at the dose of 5 nmol/kg for animals, respectively. Blood samples were taken at various time points after injections such as 0-min, 30-min, 1-hour, 2-hour, 4-hour, 6-hour, 8-hour, 24-hour, 48-hour, 3-day, 4-day, 5-day, 6-day and 7-day. The serum samples were centrifuged and kept at −80° C. freezer.
as §1, with “within the samples were” for “within the serum samples were”, “Santa Cruz Biotechnology) at the” for “Santa Cruz Biotechology) at the”
The pharmacokinetics parameters were obtained by using the WinNonlin software (Table 5).

Read-outs that look alike come from different tables or passages of the source.

Take TNFR2-Fc fusion protein (R&D Systems): in the data set with TNF-alpha, the ED50, block of the apoptosis of L-929 mouse fibroblast cells induced by TNF-alpha (0.25 ng/mL) in the presence of actinomycin D worked out at 5 ng/mL.

In the case of “GLP-1-Fc fusion protein: GLP-1-Fc fusion protein of literature reference [6] (LY2189265)”, the half life in data set [1] was about 51 h.

B1: GLP-1(A8G/G22E/R36S)-Fn8-COL18NC1-20 (ligand)
chain: HGEGTFTSDVSSYLEEQAAKEFIAWLVKGSGGGGSGGAVPPPTDLRFTNIGPDTMRVTWAPPPSIDLTNFLVRYSPVKNEEDVAELSISPSDNAVVLTNLLPGTEYVVSVSSVYEQHESTPLRGRQKTGGGGGSGGGGSGGGGSGGGGSGASSGVRLWATRQAMLGQVHEVPEGWLIFVAEQEELYVRVQNGFRKVQLEARTPLPRG
B1: in data set [2], the apparent molecular weight result is on record as “larger apparent molecular weight than their genuine molecular weight”. Further, the “EC50 (nM) measured by cAMP assay” value in data set [3] is 1.4 nM. In data set [4], the AUC(0-t) – broadly, the area under the concentration-time curve up to a stated or last time point – was determined as 36210 ng·h/mL; the AUCinf came to 37240 ng·h/mL; the CL came to 0.9505 mL/min/kg; the Cmax (commonly the maximum level reached in the sampled fluid or tissue) was 2260 ng/mL. For the same molecule, in data set [4], the T½ was 6.45 h and the V was 0.53016 L/kg.

B2: GLP-1-Fn8-COL18NC1: fusion of GLP-1, Fn8 and COL18NC1; SEQ ID NO: 2; abbreviated NC1 in Table 5 (protein)
chain: HAEGTFTSDVSSYLEGQAAKEFIAWLVKGRGGGGSGGGGSAVPPPTDLRFTNIGPDTMRVTWAPPPSIDLTNFLVRYSPVKNEEDVAELSISPSDNAVVLTNLLPGTEYVVSVSSVYEQHESTPLRGRQKTGGGGSGGGASSGVRLWATRQAMLGQVHEVPEGWLIFVAEQEELYVRVQNGFRKVQLEARTPLPRG
The molecule B2 came in with a half life in data set [5] of 5.3 h. For the same molecule, in data set [2], the apparent molecular weight is on record as about 100 Kd.
